In paper PMC5025654:

Tests used:
[1] = target: TGF-β1 of the porcine enamel matrix (porcine (endogenous in porcine enamel))
[2] = target: TGF-β1 of the porcine enamel matrix (porcine (endogenous in porcine enamel)); test: dynamic light scattering; multi-angle DLS, 25.0 °C, Tris; original (TGF-β1-bound) P103 amelogenin at c > 6.0 mg mL^-1 (Line 1), D extrapolated to D0; RH 3.21 nm, Mw from an empirical RH-Mw relation; complex formed in vivo
[3] = target: P103 amelogenin (porcine); test: dynamic light scattering; multi-angle DLS, 25.0 °C, Tris; D extrapolated to zero concentration (D0), RH by Stokes-Einstein, Mw from an empirical RH-Mw relation; P103-1 and P103-2 amelogenins and original P103 amelogenin at c < 4.0 mg mL^-1; RH 2.57 nm
[4] = target: TGF-β1 of the porcine enamel matrix (porcine (endogenous in porcine enamel)); test: co-elution on RP-HPLC, TGF-β1 quantified by ALP-inducing activity of HPDL cells; amelogenins as purified from enamel (before the in vitro binding); ng of TGF-β1 per mg of amelogenin calculated from standard CF-hTGF-β1 (0.3 ng mL^-1), after dilution correction; complexes formed in vivo
[5] = target: carrier-free recombinant human TGF-β1 (human); test: in vitro binding, RP-HPLC, TGF-β1 quantified by ALP-inducing activity of HPDL cells; purified amelogenin mixed with CF-hTGF-β1 or rh-latent TGF-β1, fractions from RP-HPLC tested in the ALP-HPDL system; ng per mg of amelogenin calculated from standard CF-hTGF-β1 (0.3 ng mL^-1), after dilution correction; details in the Supplementary Methods
[6] = target: TGFBR1 of porcine enamel organ epithelia (porcine (endogenous in enamel organ epithelia)) (UniProt Q5CD18)
TGFBR1 of porcine enamel organ epithelia (porcine (endogenous in enamel organ epithelia)), sequence (Q5CD18 30-503): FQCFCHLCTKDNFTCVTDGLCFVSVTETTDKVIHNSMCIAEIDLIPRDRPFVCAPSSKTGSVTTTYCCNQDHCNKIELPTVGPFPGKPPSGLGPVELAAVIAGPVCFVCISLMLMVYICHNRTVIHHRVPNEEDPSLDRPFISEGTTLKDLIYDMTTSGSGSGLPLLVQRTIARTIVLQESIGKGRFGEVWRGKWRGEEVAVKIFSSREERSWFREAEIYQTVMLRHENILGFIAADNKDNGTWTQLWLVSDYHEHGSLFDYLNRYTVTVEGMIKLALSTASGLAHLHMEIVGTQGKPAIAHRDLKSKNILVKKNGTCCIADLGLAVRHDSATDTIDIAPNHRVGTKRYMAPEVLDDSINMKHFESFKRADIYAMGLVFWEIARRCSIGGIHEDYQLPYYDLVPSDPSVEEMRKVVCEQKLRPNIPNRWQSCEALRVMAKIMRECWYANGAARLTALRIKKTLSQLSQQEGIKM

TGF-β1 of the porcine enamel matrix (porcine (endogenous in porcine enamel)), sequence (P07200 30-390): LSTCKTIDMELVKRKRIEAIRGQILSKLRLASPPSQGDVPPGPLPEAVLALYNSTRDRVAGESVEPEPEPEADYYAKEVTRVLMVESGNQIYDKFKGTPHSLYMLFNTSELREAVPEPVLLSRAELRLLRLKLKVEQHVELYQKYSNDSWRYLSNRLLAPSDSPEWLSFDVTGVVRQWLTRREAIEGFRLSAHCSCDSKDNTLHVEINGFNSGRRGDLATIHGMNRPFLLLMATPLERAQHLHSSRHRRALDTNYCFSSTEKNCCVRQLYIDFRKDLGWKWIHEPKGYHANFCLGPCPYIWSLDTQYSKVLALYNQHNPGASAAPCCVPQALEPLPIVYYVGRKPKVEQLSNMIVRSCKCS
P103 amelogenin-TGF-β1 complex, sequence (P07200 whole entry, looked up, one chain of several): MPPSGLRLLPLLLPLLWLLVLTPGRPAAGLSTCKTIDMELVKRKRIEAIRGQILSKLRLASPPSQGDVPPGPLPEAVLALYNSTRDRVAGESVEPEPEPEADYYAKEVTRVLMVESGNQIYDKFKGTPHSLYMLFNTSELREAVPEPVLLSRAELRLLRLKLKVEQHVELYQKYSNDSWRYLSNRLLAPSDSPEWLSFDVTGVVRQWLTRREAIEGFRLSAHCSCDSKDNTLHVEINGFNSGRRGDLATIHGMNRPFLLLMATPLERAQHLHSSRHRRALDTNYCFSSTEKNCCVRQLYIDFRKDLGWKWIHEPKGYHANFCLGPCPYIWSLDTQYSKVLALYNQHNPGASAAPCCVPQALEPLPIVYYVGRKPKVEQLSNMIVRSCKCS

ALP-inducing activity of HPDL cells left after digestion of the P103 amelogenin-TGF-β1 complex with pKLK4 for 20 h, compared to the level before digestion (CF-hTGF-β1 alone: 8%) [1]	stoichiometry N (amelogenin trimer per TGF-β homodimer) [2]	stoichiometry N [3]	original TGF-β1, ng against 1 mg of amelogenin [4]	bound TGF-β1, ng against 1 mg of amelogenin [5]	TR-FRET TGFBR1 kinase assay (phosphorylation of ULight-Topo IIα peptide, 5 mM ATP), FRET signal after 12 h with the complex added, against the control without addition (% higher than the control) [6]	Substance
70%	1	3	0.797 ng	1.08 ng		P103 amelogenin (domain or fragment)
					5	P103 amelogenin-TGF-β1 complex (from UniProt P07200 279-390)
			0.263 ng	1.06 ng		P148 amelogenin (domain or fragment)
			0.201 ng	1.17 ng		P162 amelogenin (domain or fragment)
